“Also recorded” adds a separate entry of the source. Where two headings read alike, the source gives them in different places.
Experiments:
OPM-2 myeloma cells = assay: Subcutaneous scid myeloma xenograft, OPM-2 (ICAM-1 negative); assay type: in vivo, scid mice; conditions: 2 mg/kg twice weekly
Procedure: (§1) Antibody treatment with 2 mg/kg B11 or control IgG1 was started at Day 1 and was continued on a twice-weekly intraperitoneal dosing regimen. Mice were sacrificed when tumor sizes reached the ethical limit.

Daudi lymphoma cells = assay: Programmed cell death (PCD) assay, Daudi cells; assay type: cell-based
Procedure: (§2) Target cells were seeded in 96-well culture plates at a density of 2×10^6 cells/mL culture medium. Titrated concentrations of IgG1 B11 or different negative and positive control antibodies were added to the cells, in the absence or presence of anti-human Fab fragment (Jackson ImmunoResearch) for cross-linking. The cells were then incubated for 16 hours at 37° C. in a humidified atmosphere of 5% CO2. The cells were harvested and stained for Annexin V-488/Propidium Iodide (Invitrogen, Sweden) and analysed using flow cytometer (FACS Calibur, BD Bioscience).

ARH-77 tumors = assay: Advanced (established, palpable tumors) scid/ARH-77 xenograft model; conditions: IgG B11 effective even at 100-fold lower dose (0.2 mg/kg) than rituximab
Procedure: Mice were anaesthetized with a mixture of sevofluran and oxygen prior to myeloma cell inoculation and 1-5×10^6 myeloma cells were then subcutaneously injected in a volume of 100 μl into the left flank. Treatment with antibodies by intraperitonial (i.p.) injections was started either the day after cell inoculation (prophylactic model) or when tumors reached a size of approximately 100 mm^3 (established model). Antibodies were administrated in PBS in a total volume of 200 μL. Treatment with PBS or isotype control was used as control. Tumors were measured with a digital calliper and the tumor volumes were calculated according to formula: width^2×length×0.52. Animals were sacrificed when the tumor sizes reached the ethical limit of 1.5 cm. Surviving mice were sacrificed after a maximum of 5 months. Blood samples collected from the vena cava were centrifuged at 2500 g for 15 min to obtain serum and the samples were stored at −20° C. Tumors were removed for immunohistochemistry, snap frozen and were kept at −85° C.

[1] = system: HUVEC, HMVEC or peripheral blood B cells; assay: CDC of normal ICAM-1 expressing cells; assay type: cell-based
Procedure: (§3) Target cells were harvested and incubated in RPMI medium with antibodies at 5 μg/mL or at titrated concentrations between 0.01-100 μg/mL for 60 min on ice. Cells were thereafter washed and resuspended in cold medium before dispension into flow cytometry tubes. Treatments were performed in triplicates. Human serum, normal or heat-inactivated, (Sigma, Sweden) was added to tubes and the samples were incubated for 2 h at 37° C. After completed incubation ToPo-Pro-3 was added at a final concentration of 0.3 μM and cells were analyzed for membrane permeabilization using flow cytometry.

[2] = system: ICAM-1 expressing tumor cell lines; assay: Complement-dependent cytotoxicity (CDC) in tumor cell lines; assay type: cell-based; conditions: panel of ICAM-1 expressing tumor cell lines
Procedure: as §3

NCI-H929 myeloma cells = assay: Subcutaneous scid myeloma xenograft, NCI-H929; assay type: in vivo, scid mice; conditions: 2 mg/kg twice weekly
Procedure: as §1

[3] = system: HUVEC, HMVEC or peripheral blood B cells; assay: ADCC of normal ICAM-1 expressing cells; assay type: cell-based
From the text: Buffy coats from human donors (ordered through Blodcentralen, Lund) were used to isolate peripheral blood mononuclear cells (PBMCs), and subsequently NK cells. Briefly, peripheral blood components were separated using Ficoll Paque PLUS (Amersham Biosciences, Sweden) in LeucoSep tubes (Greiner Bio-One). The PBMC fraction was removed and thoroughly washed in ice-cold DPBS (Invitrogen), before magnetic labeling and separation of the NK cell population using positive or negative NK cell isolation kits and MACS LS columns (Miltenyi Biotec). The purity of the obtained NK cell fractions was analyzed using flow cytometry, after staining with α-CD56 antibodies (BD Biosciences). Target cells were harvested, and incubated in medium with or without the respective antibodies (2 μg/mL) for 60 min on ice. Cells were thereafter washed and resuspended in cold medium before dispension into FACS tubes. Subsequently, isolated NK cells were diluted in ADCC medium and dispensed together with the respective antibody-coated target cells at varying effector/target cell ratios (40:1, 20:1, 5:1 and 1:1). All experiments were performed in triplicates. After completed incubation ToPo-Pro-3 dye and counting beads (Invitrogen) were added and cells were analyzed for membrane permeabilization using flow cytometry.

[4] = system: HUVEC and HMVEC endothelial cells; assay: PCD in normal ICAM-1 expressing endothelial cells; assay type: cell-based; conditions: resting or activated HUVEC/HMVEC
Procedure: as §2

human FcγRIIIa = molecular target: T1, human FcγRIIIa (Homo sapiens, UniProt P08637); assay: B11 isotype variant binding to FcγR (Biacore), human FcγRIIIa
T1 construct: made in house; host or cells: HEK293E (transient, adherent)
T1 sequence (P08637 17-254): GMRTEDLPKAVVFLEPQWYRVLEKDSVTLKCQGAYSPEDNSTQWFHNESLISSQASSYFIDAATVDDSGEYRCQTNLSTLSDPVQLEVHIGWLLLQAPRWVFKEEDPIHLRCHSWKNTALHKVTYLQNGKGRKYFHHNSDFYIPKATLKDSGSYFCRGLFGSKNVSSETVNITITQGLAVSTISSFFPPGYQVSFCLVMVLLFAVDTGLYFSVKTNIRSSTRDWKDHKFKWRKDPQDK
Procedure: His-tagged human FcγRIIIa or mouse FcγRIV were expressed transient in adherent HEK293E cells, purified using Ni-NTA chromatography and characterized using SDS-PAGE and/or Biacore. Surface plasmon resonance (SPR) measurements were performed using a Biacore 3000 instrument. Goat α-human-F(ab)′2 F(ab)′2 fragment (Jackson laboratories) was immobilised with a CM-5 chip using a standard amine coupling protocol. IgG1 B11, IgG4 B11, or 297Q B11 were diluted to 15 and 60 μg/mL respectively and added to the surface at […] for 3 min. His tagged human FcγRIIIa or mouse FcγRIV were pre-incubated with an α-HIS antibody (R&D Systems) at a 2:1 molar ratio before addition to the chip surface, 30 μL/min, 1 min. After each cycle the surface was regenerated twice with glycine buffer pH 1.7.

ARH-77 cells = assay: Subcutaneous scid/ARH-77 xenograft, treatment from the day after cell inoculation (prophylactic model)
Procedure: Tumor cells were injected subcutaneously into the left flank of SCID mice. Mice received twice-weekly intraperitoneal injections with B11, control antibody or rituximab at doses of 20, 2 and/or 0.2 mg/kg commencing one day after tumor cell inoculation. There were 8 to 10 animals per treatment group. (A) Tumor volume as a function of antibody dose. (B) Kaplan-Meier survival graph as a function of antibody dose. […] Statistical significance was calculated relative to control antibody treatment using Kruskal-Wallis Test (Nonparametric ANOVA) with Dunn's Multiple Comparisons Test (tumor volume) or the log-rank test (mouse survival) using Graphpad Instat or Prism software, respectively. Statistical significance was considered for *p<0.05, **p<0.01, and ***p<0.001.
Tumor cells were injected subcutaneously into the left flank of SCID mice. Mice received twice-weekly intraperitoneal injections with B11 at doses of 0.02-20 mg/kg commencing day after tumor cell inoculation. There were 8-10 animals per treatment group. (A) Tumor volume as a function of antibody dose. (B) Kaplan-Meier survival graph as a function of antibody dose. Statistical significance was calculated relative to control antibody treatment using Kruskal-Wallis Test (Nonparametric ANOVA) with Dunn's Multiple Comparisons Test (tumor volume) or the log-rank test (mouse survival) using Graphpad Instat or Prism software, respectively. Statistical significance was considered for *p<0.05, **p<0.01, and ***p<0.001. Graphs illustrate representative experiments out of several performed.
(A) ARH-77 cells were injected subcutaneously into the left flank of SCID mice (n=8 per group). Mice were treated with the different B11 isotypes twice weekly. […] Statistical significance was calculated relative to control antibody treatment using Kruskal-Wallis Test (Nonparametric ANOVA) with Dunn's Multiple Comparisons Test. Statistical significance was considered for *p<0.05, **p<0.01, and ***p<0.001.
Mice were anaesthetized with a mixture of sevofluran and oxygen prior to myeloma cell inoculation and 1-5×10^6 myeloma cells were then subcutaneously injected in a volume of 100 μl into the left flank. Treatment with antibodies by intraperitonial (i.p.) injections was started either the day after cell inoculation (prophylactic model) or when tumors reached a size of approximately 100 mm^3 (established model).

B1: IgG B11: novel human ICAM-1 antibody targeting the B11 epitope, isolated from the naïve antibody library n-CoDeR (antibody, V domains shown)
VH: EVQLLESGGGLVQPGGSLRLSCAASGFTFSNAWMSWVRQAPGKGLEWVAFIWYDGSNKYYADSVKGRFTISRDNSKNTLYLQMNSLRAEDTAVYYCARYSGWYFDYWGQGTLVTVSS
VL: QSVLTQPPSASGTPGQRVTISCTGSSSNIGAGYDVHWYQQLPGTAPKLLIYDNNNRPSGVPDRFSGSKSGTSASLAISGLRSEDEADYYCQSYDSSLSAWLFGGGTKLTVLG
modifications: B11 antibody variable H region; B11 antibody variable L region
OPM-2 myeloma cells
  effect on tumor growth: no effect on tumor growth; also recorded: did not affect tumor growth
Daudi lymphoma cells; ICAM-1 expressing Daudi lymphoma cells
  PCD-induction: dose dependent PCD-induction
Daudi lymphoma cells; antibody immobilised by either coating protocol, data not shown
  programmed cell death by immobilised antibody: induced programmed cell death
ARH-77 tumors
  animal survival: prolonged animal survival
  tumor growth: significantly prevented tumor growth
[1]
  CDC of normal cells: did not confer ADCC or CDC
[1]; listed as B11
  CDC of normal cells: not significantly affected
[2]
  induction of CDC: did not induce CDC
NCI-H929 myeloma cells
  reduction of myeloma tumor growth: 99%
[3]
  ADCC of normal cells: did not confer ADCC or CDC
[3]; listed as B11
  ADCC of normal cells: not significantly affected
[4]
  programmed cell death of normal endothelial cells: did not, however, induce PCD
Human FcγRIIIa
  binding to human FcγRIIIa: bound to human FcγRIIIa
ARH-77 cells; 20 mg/kg twice weekly i.p., commencing one day after tumor cell inoculation
  tumor growth: completely prevent tumor-growth
ARH-77 cells; B11 0.02-20 mg/kg twice weekly i.p.
  anti-tumor activity in dose-titration experiment: peaked at the 2 mg/kg dose and remained near maximal at a dose of 0.2 mg/kg
ARH-77 cells; IgG B11 at 2 mg/kg, ten-fold lower dose than rituximab
  survival: complete survival
ARH-77 cells; twice weekly treatment, s.c. ARH-77
  anti-tumor activities of IgG B11 isotype switch variants (rank order): increased in the order of IgG1N297Q<IgG4<IgG1
